According to the supplement of paper PMC10065799, “High-throughput profiling of sequence recognition by tyrosine kinases and SH2 domains using bacterial peptide display” (eLife, 2023):

Columns and labels:
AncSZ = experiment: phosphorylation enrichment, bacterial display (enrichment ratio); higher = better substrate or ligand; peptides without Tyr show the background
EPHB1 = EPHB1 (UniProt P54762); experiment: as above
EPHB2 = EPHB2 (UniProt P29323); experiment: as above
FGFR1 = FGFR1 (UniProt P11362); experiment: as above
FGFR1, sequence (P11362 whole entry, looked up): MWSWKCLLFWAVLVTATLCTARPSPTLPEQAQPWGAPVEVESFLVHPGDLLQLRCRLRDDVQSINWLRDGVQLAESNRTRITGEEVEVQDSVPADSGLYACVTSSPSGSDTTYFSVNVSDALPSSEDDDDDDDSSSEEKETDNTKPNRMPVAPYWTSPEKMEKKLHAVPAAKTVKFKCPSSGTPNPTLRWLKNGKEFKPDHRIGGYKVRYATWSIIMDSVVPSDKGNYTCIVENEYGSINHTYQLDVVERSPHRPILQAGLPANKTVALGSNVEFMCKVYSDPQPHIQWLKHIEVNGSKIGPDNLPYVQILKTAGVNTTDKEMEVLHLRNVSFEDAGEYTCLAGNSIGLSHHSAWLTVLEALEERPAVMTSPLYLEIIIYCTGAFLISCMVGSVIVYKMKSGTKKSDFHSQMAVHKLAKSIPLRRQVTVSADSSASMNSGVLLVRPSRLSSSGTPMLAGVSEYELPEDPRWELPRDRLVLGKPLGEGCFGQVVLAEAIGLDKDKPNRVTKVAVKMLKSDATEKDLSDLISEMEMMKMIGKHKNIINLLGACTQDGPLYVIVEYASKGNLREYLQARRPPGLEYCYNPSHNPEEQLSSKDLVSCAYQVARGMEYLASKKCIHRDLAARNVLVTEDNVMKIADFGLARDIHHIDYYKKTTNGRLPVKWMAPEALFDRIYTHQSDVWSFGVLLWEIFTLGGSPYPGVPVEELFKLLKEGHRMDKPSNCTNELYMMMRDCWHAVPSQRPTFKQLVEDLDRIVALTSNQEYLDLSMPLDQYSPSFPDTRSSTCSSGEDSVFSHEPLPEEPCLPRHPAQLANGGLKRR

FGFR3 = FGFR3 (UniProt P22607); experiment: as above
FGFR3, sequence (P22607 whole entry, looked up): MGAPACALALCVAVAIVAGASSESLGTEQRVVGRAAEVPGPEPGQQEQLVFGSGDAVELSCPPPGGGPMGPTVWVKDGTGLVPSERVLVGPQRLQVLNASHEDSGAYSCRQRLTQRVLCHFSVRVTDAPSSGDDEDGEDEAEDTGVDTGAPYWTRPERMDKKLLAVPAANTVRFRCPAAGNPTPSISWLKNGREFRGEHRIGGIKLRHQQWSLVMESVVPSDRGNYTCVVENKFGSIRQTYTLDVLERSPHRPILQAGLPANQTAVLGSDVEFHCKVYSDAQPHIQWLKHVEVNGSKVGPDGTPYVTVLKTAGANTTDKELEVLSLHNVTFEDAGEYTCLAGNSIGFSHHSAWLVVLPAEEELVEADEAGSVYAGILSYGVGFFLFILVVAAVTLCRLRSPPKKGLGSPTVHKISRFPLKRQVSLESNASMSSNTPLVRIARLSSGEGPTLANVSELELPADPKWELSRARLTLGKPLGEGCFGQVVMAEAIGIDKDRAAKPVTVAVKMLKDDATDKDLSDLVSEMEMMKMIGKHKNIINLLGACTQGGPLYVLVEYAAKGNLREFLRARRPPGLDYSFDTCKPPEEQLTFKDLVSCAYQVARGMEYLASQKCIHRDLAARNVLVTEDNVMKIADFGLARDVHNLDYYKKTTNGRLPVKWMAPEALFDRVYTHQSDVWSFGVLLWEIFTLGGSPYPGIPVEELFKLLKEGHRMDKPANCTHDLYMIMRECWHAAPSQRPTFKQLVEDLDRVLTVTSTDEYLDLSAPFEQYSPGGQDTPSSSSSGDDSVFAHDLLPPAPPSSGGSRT

Fer (mouse) = experiment: as above
Fes = Fes (UniProt P07332); experiment: as above
Fes, sequence (P07332 whole entry, looked up): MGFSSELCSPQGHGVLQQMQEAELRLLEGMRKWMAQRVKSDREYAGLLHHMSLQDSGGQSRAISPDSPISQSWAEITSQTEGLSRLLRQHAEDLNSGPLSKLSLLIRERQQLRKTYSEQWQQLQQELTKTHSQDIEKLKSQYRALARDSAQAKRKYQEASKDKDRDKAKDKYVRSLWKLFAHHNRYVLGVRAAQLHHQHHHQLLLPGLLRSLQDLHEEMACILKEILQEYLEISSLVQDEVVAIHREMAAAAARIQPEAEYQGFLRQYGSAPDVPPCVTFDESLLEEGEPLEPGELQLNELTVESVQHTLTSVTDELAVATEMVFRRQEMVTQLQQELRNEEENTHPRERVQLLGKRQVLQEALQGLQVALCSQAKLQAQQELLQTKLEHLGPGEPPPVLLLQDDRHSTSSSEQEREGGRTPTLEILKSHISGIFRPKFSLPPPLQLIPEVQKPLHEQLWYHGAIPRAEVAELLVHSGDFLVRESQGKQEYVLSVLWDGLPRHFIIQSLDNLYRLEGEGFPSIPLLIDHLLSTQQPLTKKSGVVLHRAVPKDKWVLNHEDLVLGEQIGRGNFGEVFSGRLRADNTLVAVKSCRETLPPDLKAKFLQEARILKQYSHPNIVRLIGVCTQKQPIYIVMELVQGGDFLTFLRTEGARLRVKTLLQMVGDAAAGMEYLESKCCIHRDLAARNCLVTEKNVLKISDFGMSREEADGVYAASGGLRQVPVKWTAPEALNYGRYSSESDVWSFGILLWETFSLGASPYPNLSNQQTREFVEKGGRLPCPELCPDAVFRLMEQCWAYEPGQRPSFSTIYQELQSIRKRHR

Fyn = Fyn (UniProt P06241); experiment: as above
Hck = Hck (UniProt P08631); experiment: as above
Hck, sequence (P08631 whole entry, looked up): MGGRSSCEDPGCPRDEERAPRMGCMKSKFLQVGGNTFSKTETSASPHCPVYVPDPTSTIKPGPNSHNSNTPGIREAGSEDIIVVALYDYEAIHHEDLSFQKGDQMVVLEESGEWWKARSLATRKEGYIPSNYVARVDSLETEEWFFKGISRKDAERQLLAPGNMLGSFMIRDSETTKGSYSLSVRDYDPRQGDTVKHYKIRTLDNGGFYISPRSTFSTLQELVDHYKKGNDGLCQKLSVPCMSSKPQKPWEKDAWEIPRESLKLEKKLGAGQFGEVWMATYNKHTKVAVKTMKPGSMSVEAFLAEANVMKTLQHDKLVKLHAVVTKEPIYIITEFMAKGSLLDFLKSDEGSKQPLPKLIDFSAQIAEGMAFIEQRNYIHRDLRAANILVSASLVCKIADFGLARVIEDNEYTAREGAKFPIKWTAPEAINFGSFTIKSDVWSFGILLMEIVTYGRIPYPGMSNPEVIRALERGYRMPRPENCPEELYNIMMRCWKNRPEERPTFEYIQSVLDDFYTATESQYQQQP

Jak2 = Jak2 (UniProt O60674); experiment: as above
MERTK = MERTK (UniProt Q12866); experiment: as above
c-Abl (mouse) = experiment: as above
c-Src = experiment: as above
Grb2 SH2 = Grb2 SH2 (UniProt P62993); experiment: SH2 binding enrichment of the phosphorylated peptide, bacterial display (enrichment ratio); higher = better substrate or ligand; peptides without Tyr show the background
SHP2-C SH2 = experiment: as above
c-Src SH2 = experiment: as above
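Wherever SH2 binding enrichment of the phosphorylated peptide, bacterial display is given: peptide library displayed on the E. coli surface as eCPX fusions, selected cells deep-sequenced, score is each peptide's frequency after selection divided by its frequency in the input.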
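Wherever phosphorylation enrichment, bacterial display is given: 11-residue human phosphosite peptides and single-mutation variants displayed on the E. coli surface, counted by deep sequencing, each peptide's frequency after selection divided by its frequency in the unselected input library; frequency after pTyr selection over input frequency; kinase dosed for 20-30% of maximal phosphorylation in three min.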

EPHB2, sequence (P29323 whole entry, looked up): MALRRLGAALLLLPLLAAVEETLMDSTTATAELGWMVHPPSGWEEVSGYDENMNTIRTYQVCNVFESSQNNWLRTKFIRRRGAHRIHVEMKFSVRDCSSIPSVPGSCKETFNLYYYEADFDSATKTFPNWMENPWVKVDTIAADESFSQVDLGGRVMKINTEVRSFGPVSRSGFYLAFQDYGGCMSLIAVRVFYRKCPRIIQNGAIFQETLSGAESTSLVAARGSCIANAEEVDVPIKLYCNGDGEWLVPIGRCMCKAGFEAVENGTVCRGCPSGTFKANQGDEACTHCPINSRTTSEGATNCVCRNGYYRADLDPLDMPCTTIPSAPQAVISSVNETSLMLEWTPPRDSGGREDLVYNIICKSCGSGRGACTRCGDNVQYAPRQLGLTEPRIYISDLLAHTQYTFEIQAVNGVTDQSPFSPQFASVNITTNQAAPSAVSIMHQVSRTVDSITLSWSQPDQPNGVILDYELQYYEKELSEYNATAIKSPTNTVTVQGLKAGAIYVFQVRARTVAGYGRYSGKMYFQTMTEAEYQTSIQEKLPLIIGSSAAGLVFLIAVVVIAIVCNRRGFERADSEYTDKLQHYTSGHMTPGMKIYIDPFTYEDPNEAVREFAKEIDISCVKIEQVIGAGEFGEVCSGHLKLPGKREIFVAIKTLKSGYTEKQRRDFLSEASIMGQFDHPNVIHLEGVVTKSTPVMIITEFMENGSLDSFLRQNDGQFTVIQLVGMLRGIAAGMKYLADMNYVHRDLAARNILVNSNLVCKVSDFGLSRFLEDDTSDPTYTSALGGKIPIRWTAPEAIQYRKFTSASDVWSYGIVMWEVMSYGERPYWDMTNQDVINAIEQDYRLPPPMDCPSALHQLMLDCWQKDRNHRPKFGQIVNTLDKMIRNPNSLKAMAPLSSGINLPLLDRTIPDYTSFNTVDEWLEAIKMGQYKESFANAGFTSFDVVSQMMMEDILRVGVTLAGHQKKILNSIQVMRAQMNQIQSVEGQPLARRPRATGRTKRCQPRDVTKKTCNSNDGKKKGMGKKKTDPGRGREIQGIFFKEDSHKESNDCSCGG
EPHB1, sequence (P54762 whole entry, looked up): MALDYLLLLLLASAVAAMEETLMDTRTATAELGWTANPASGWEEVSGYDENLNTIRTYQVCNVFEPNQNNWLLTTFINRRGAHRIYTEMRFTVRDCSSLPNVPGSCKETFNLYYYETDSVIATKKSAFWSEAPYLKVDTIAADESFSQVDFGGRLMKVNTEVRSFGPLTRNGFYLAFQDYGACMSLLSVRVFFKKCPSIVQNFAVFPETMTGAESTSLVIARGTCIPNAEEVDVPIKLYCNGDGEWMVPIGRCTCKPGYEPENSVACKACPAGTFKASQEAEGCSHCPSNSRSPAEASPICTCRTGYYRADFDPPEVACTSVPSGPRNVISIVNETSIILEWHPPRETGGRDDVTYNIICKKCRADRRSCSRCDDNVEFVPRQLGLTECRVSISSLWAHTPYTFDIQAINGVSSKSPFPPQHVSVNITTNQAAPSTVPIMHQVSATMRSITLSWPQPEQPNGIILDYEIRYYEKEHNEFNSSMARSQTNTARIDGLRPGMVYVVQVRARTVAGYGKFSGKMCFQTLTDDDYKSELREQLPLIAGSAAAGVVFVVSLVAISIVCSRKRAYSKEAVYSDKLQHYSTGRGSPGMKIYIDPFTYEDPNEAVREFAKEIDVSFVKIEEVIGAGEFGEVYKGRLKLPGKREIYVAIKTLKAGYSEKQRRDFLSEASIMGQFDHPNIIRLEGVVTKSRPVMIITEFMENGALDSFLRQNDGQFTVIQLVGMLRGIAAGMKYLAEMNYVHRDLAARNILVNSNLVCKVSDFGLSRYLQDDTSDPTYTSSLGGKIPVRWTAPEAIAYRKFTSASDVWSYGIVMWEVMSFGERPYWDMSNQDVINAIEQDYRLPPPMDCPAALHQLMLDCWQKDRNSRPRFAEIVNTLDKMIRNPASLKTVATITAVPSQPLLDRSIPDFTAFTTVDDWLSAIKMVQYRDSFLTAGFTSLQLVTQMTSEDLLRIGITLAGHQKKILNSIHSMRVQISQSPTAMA

| SH2 binding enrichment (Grb2 SH2) | SH2 binding enrichment (SHP2-C SH2) | SH2 binding enrichment (c-Src SH2) | Sequence | phosphorylation enrichment (AncSZ) | phosphorylation enrichment (EPHB1) | phosphorylation enrichment (EPHB2) | phosphorylation enrichment (FGFR1) | phosphorylation enrichment (FGFR3) | phosphorylation enrichment (Fer (mouse)) | phosphorylation enrichment (Fes) | phosphorylation enrichment (Fyn) | phosphorylation enrichment (Hck) | phosphorylation enrichment (Jak2) | phosphorylation enrichment (MERTK) | phosphorylation enrichment (c-Abl (mouse)) | phosphorylation enrichment (c-Src) |
| --- | --- | --- | --- | --- | --- | --- | --- | --- | --- | --- | --- | --- | --- | --- | --- | --- |
| 0.988 | 0.981 | 10.1 | VVRSLYEDLED [VHL_Y185_I180V] | 1.26 | 0.711 | 0.984 | 0.556 | 0.792 | 1.24 | 1.24 | 0.587 | 0.573 | 1.21 | 0.525 | 0.835 | 0.544 |
| 0.791 | 0.518 | 0.856 | KRLDGYVLEGR [IGSF9_Y656] | 0.585 | 0.356 | 0.417 | 0.43 | 0.44 | 0.323 | 0.67 | 0.441 | 0.447 | 0.426 | 0.385 | 0.496 | 0.321 |
| 0.827 | 0.606 | 0.941 | GISDEYHVIRH [GCDH_Y398] | 0.917 | 0.458 | 0.475 | 4.48 | 2.26 | 0.405 | 0.69 | 0.64 | 0.962 | 0.633 | 0.339 | 0.569 | 0.664 |
| 1.06 | 1.03 | 0.787 | NWGKKYPTCNS [PTPRZ1_Y53] | 0.771 | 0.507 | 0.558 | 0.459 | 0.603 | 0.485 | 0.978 | 0.523 | 0.463 | 0.85 | 0.43 | 0.839 | 0.435 |
| 1.1 | 1 | 0.755 | PDNEPYIFKVF [PIK3AP1_Y553] | 2.37 | 0.684 | 0.787 | 1.16 | 1.5 | 0.647 | 2.25 | 0.846 | 0.758 | 2.79 | 0.725 | 1.19 | 1.05 |
| 0.913 | 0.656 | 0.742 | FKEIVYAVSSD [DCX_Y70_G67E] | 1.32 | 0.455 | 0.644 | 0.723 | 0.809 | 0.587 | 1.4 | 3.23 | 2.25 | 0.921 | 1.93 | 13.7 | 3.74 |
| 0.591 | 0.584 | 0.343 | DFAIVYGTIIL [GPR179_Y460_G455D] | 1.52 | 0.732 | 0.777 | 0.565 | 1.1 | 0.727 | 1.51 | 0.692 | 0.665 | 1.16 | 0.402 | 0.846 | 0.483 |
| 0.826 | 0.565 | 0.55 | SGSWSYNTSTE [SELE_Y24_A21S] | 0.925 | 0.56 | 0.586 | 0.527 | 0.768 | 0.393 | 1.07 | 0.5 | 0.536 | 0.968 | 0.503 | 0.787 | 0.503 |
| 0.81 | 0.865 | 2.12 | PLQNTYNYNVL [SLC4A1_Y553_K551N] | 0.634 | 0.939 | 1.6 | 0.37 | 0.545 | 0.233 | 0.894 | 0.65 | 0.6 | 0.67 | 0.737 | 1.51 | 0.745 |
| 0.782 | 0.62 | 0.353 | DNQFAYLKAII [HNF4A_Y288_E285Q_YF] | 1.16 | 0.43 | 0.595 | 0.473 | 0.702 | 0.592 | 1.33 | 0.396 | 0.393 | 1.02 | 0.369 | 0.711 | 0.372 |
| 0.951 | 0.6 | 1.21 | KILGRYYETGS [PAX2_Y72] | 0.641 | 0.5 | 0.586 | 0.507 | 0.523 | 0.418 | 0.758 | 0.437 | 0.486 | 0.952 | 0.548 | 0.636 | 0.504 |
| 0.666 | 2.26 | 5.62 | PSELYYSKIGP [SMG1_Y2254] | 2.07 | 5.13 | 2.91 | 12.9 | 8.9 | 16.3 | 1.68 | 8.78 | 18.8 | 4.02 | 23.8 | 3.88 | 10.8 |
| 1.1 | 0.872 | 0.524 | FISLIYTNFEA [GSTP1_Y109_YF] | 1.56 | 1.11 | 0.793 | 0.683 | 1.12 | 2 | 1.55 | 4.29 | 2.56 | 1.3 | 3.6 | 2.21 | 4.67 |
| 0.643 | 0.433 | 0.607 | SSMIDYNTLEK [MYOC_Y479_P481T] | 0.792 | 0.428 | 0.506 | 0.401 | 0.568 | 0.453 | 0.748 | 0.452 | 0.482 | 0.904 | 0.408 | 0.486 | 0.401 |
| 0.924 | 0.62 | 0.462 | SSSGGYGGGYG [KRT19_Y61_A60G] | 0.456 | 0.326 | 0.337 | 0.408 | 0.335 | 0.333 | 0.534 | 0.352 | 0.379 | 0.479 | 0.342 | 0.374 | 0.377 |
| 0.955 | 1.31 | 0.434 | VTSLKYSTPPY [BRIP1_Y916_S919P] | 0.625 | 0.355 | 0.344 | 0.358 | 0.515 | 0.352 | 0.681 | 0.366 | 0.396 | 0.565 | 0.387 | 0.483 | 0.389 |
| 0.75 | 0.71 | 3.69 | KGSLPYNLILD [PKD1L2_Y406] | 0.695 | 0.468 | 0.418 | 0.552 | 0.616 | 0.488 | 0.713 | 0.438 | 0.44 | 0.687 | 0.421 | 0.743 | 0.542 |

| SH2 binding enrichment (Grb2 SH2) | SH2 binding enrichment (SHP2-C SH2) | SH2 binding enrichment (c-Src SH2) | Sequence | phosphorylation enrichment (AncSZ) | phosphorylation enrichment (EPHB1) | phosphorylation enrichment (EPHB2) | phosphorylation enrichment (FGFR1) | phosphorylation enrichment (FGFR3) | phosphorylation enrichment (Fer (mouse)) | phosphorylation enrichment (Fes) | phosphorylation enrichment (Fyn) | phosphorylation enrichment (Hck) | phosphorylation enrichment (Jak2) | phosphorylation enrichment (MERTK) | phosphorylation enrichment (c-Abl (mouse)) | phosphorylation enrichment (c-Src) |
| --- | --- | --- | --- | --- | --- | --- | --- | --- | --- | --- | --- | --- | --- | --- | --- | --- |
| 0.92 | 0.534 | 0.533 | ILLAGCLVMVI [SLC28A3_Y113_Y113C] | 1.24 | 0.607 | 0.614 | 0.422 | 0.829 | 0.493 | 1.26 | 0.471 | 0.51 | 1.18 | 0.486 | 0.995 | 0.475 |
| 1.21 | 6.64 | 2.08 | YQSKHYACIRQ [TIMP3_Y182] | 0.673 | 0.462 | 0.451 | 0.52 | 0.45 | 0.554 | 0.762 | 0.418 | 0.55 | 0.626 | 0.534 | 0.648 | 0.406 |
| 2.05 | 1.93 | 1.38 | FLLTVYSIFSK [SGCE_Y38] | 1.15 | 0.643 | 0.589 | 0.496 | 0.647 | 0.594 | 1.05 | 2.59 | 2.3 | 1.1 | 1.17 | 0.899 | 3.17 |
| 0.976 | 0.888 | 0.464 | NKVQFYIPDMN [NCR1_Y84_K82Q] | 0.801 | 0.501 | 0.533 | 0.579 | 0.711 | 0.447 | 0.984 | 0.411 | 0.532 | 1.01 | 0.483 | 0.744 | 0.431 |
| 0.803 | 0.969 | 0.633 | ALLVFYAATIA [SLC20A2_Y187_P184L] | 0.934 | 0.648 | 0.565 | 0.445 | 0.672 | 0.501 | 1.13 | 0.44 | 0.513 | 1.04 | 0.429 | 0.871 | 0.455 |
| 0.925 | 0.746 | 2.56 | DCVRMYELVHR [GLE1_Y135_G130D] | 1.21 | 7.46 | 3.53 | 0.594 | 0.831 | 7.12 | 1.31 | 0.754 | 2.57 | 1.09 | 3.03 | 1.03 | 1.3 |
| 0.742 | 0.716 | 0.759 | LARDMDDKEYY [MET_Y1230_Y1230D] | 1.87 | 0.828 | 1.13 | 0.867 | 1.19 | 0.643 | 1.64 | 0.691 | 0.723 | 1.37 | 0.489 | 1.2 | 0.531 |
| 0.836 | 0.761 | 0.623 | QSHKVYFQHLL [POR_Y604_V605F] | 1.14 | 0.671 | 0.503 | 0.622 | 0.915 | 0.698 | 1.52 | 0.473 | 0.598 | 1.22 | 0.725 | 0.991 | 0.663 |
| 0.743 | 0.556 | 0.465 | GSSEDYLHMVH [NIPBL_Y247] | 0.978 | 0.475 | 0.473 | 1.07 | 1 | 0.416 | 0.874 | 0.423 | 0.449 | 0.874 | 0.485 | 0.646 | 0.524 |
| 0.817 | 0.667 | 2.29 | HEVHIYEKSGA [ARPC1B_Y35] | 1.38 | 1.1 | 0.611 | 0.673 | 0.993 | 1.03 | 1.74 | 1.01 | 1.68 | 1.06 | 0.77 | 1.69 | 1.48 |
| 0.884 | 0.841 | 1.87 | FPLAEYTEVKT [ALDH1A3_Y497_A493P_YF] | 1.34 | 0.685 | 0.575 | 0.671 | 0.82 | 0.516 | 0.968 | 0.502 | 0.54 | 1.01 | 0.4 | 0.709 | 0.528 |
| 0.815 | 0.568 | 0.615 | MKGDYYRYLAE [YWHAG_Y131] | 1.07 | 1.09 | 1.02 | 8.62 | 6.43 | 0.501 | 0.89 | 0.741 | 0.779 | 3.29 | 0.718 | 0.686 | 0.639 |
| 1.18 | 1.21 | 0.677 | GMKIVYVFVKK [DNAI2_Y5_E2K_YF] | 1.2 | 0.59 | 0.538 | 0.433 | 0.706 | 0.416 | 1.14 | 0.463 | 0.428 | 1 | 1.06 | 0.863 | 0.394 |
| 0.836 | 0.598 | 0.494 | ATAKGYEPDAS [OTC_Y223_P220A] | 0.883 | 0.523 | 0.523 | 0.481 | 0.549 | 0.473 | 0.784 | 0.441 | 0.483 | 0.684 | 0.416 | 0.598 | 0.461 |
| 0.94 | 1.07 | 0.742 | FASTGYVIAIQ [GRIN2B_Y762_G763V] | 1.32 | 0.618 | 0.587 | 0.484 | 0.724 | 0.543 | 0.983 | 0.474 | 0.418 | 0.941 | 0.393 | 0.784 | 0.4 |
| 0.722 | 0.824 | 0.485 | GRERPYGGGGG [FUS_Y526_R521G] | 0.498 | 0.654 | 0.492 | 1.02 | 0.487 | 0.6 | 0.565 | 0.357 | 0.787 | 0.512 | 0.968 | 0.416 | 0.854 |
